In publication PMC7455749, “A leap in quantum efficiency through light harvesting in photoreceptor UVR8” (Nature Communications, 2020):

Key:
[1] = biological target: the molecule itself; assay: not stated; oligomeric state of the UVR8 mutants without UV-B; method not given; UVR8 lysis buffer (150 mM NaCl, 25 mM Tris, pH 8.0), room temperature
[2] = biological target: the molecule itself; assay: SEC; Superdex200 size column run after the sub-nanosecond TCSPC measurements (290 nm pulsed LED, 10 uM samples); dimer to monomers

Protein	stoichiometry N [1]	binding result [2]
UVR8 mutant 6Wd + 3Wp (all four tryptophans of the 4Wc pyramid center changed to phenylalanine, on the W400F template) (receptor, Arabidopsis thaliana, UniProt Q9FN03 1-440, looked up, UVR8, Arabidopsis thaliana; W400F template) MAEDMAADEVTAPPRKVLIISAGASHSVALLSGDIVCSWGRGEDGQLGHGDAEDRPSPTQLSALDGHQIVSVTCGADHTVAYSQSGMEVYSWGFGDFGRLGHGNSSDLFTPLPIKALHGIRIKQIACGDSHCLAVTMEGEVQSWGRNQNGQLGLGDTEDSLVPQKIQAFEGIRIKMVAAGAEHTAAVTEDGDLYGWGWGRYGNLGLGDRTDRLVPERVTSTGGEKMSMVACGFRHTISVSYSGALYTYGWSKYGQLGHGDLEDHLIPHKLEALSNSFISQISGGFRHTMALTSDGKLYGWGWNKFGQVGVGNNLDQCSPVQVRFPDDQKVVQVSCGFRHTLAVTERNNVFAWGRGTNGQLGIGESVDRNFPKIIEALSVDGASGQHIESSNIDPSSGKSFVSPAERYAVVPDETGLTDGSSKGNGGDISVPQTDVKRVRI	2	
Arabidopsis thaliana UVR8 (UV … LOCUS 8) W400F, redefined as wild type (WT) (receptor, UniProt Q9FN03 1-440, looked up, UVR8, Arabidopsis thaliana; the construct holds residue 400 (W400F); also called UVR8 WT) MAEDMAADEVTAPPRKVLIISAGASHSVALLSGDIVCSWGRGEDGQLGHGDAEDRPSPTQLSALDGHQIVSVTCGADHTVAYSQSGMEVYSWGWGDFGRLGHGNSSDLFTPLPIKALHGIRIKQIACGDSHCLAVTMEGEVQSWGRNQNGQLGLGDTEDSLVPQKIQAFEGIRIKMVAAGAEHTAAVTEDGDLYGWGWGRYGNLGLGDRTDRLVPERVTSTGGEKMSMVACGWRHTISVSYSGALYTYGWSKYGQLGHGDLEDHLIPHKLEALSNSFISQISGGWRHTMALTSDGKLYGWGWNKFGQVGVGNNLDQCSPVQVRFPDDQKVVQVSCGWRHTLAVTERNNVFAWGRGTNGQLGIGESVDRNFPKIIEALSVDGASGQHIESSNIDPSSGKSFVSPAERYAVVPDETGLTDGSSKGNGGDISVPQTDVKRVRI		binds
